Key:
[1] = tested on: Compound 19, AF-Cit-Lys(PEG4-Mal-Cys-Ac)-Phe-OH
[2] = tested on: Compound 5, DM1-Mal-Phe-Lys-Lys(PEG4-Mal-Cys-Ac)-Phe-OH
[3] = tested on: Compound 7, DM1-Mal-Phe-Cit-Phe-Lys(PEG4-Mal-Cys-Ac)-OH
[4] = tested on: Compound 3, AF-Arg-Phe-Lys(PEG4-Mal-Cys-Ac)-OH
[5] = tested on: Compound 22, DM1-Mcc-Phe-Cit-Lys(PEG5-Ma-Cys-Ac)-Tyr-OH
[6] = tested on: Compound 30, Ac-Cys-Mal-PEG4-Phe-Arg-Lys(Mal-DM1)-Arg-Lys(AF)-Phe-OH
[7] = tested on: Compound 29, Ac-Cys-Mal-PEG4-[Phe-Lys-Lys(Mal-DM1)-Phe]2-OH
[8] = tested on: Compound 16, Arg-PEG4-Phe-Arg-Glu(Sar-OCPT)-Arg-Phe-Arg-OH
[9] = tested on: Compound 23, DM1-Mcc-Cit-Lys(PEG5-Ma-Cys-Ac)-Tyr-OH
[10] = tested on: Compound 17, Arg-PEG4-Phe-Arg-[Glu(Sar-OCPT)-Phe]2-OH
[11] = tested on: Compound 9, Arg-PEG4-Phe-Arg-Dap(CO-CPT)-Phe-OH
[12] = tested on: Compound 10, Arg-PEG4-Phe-Arg-Dab(CO-CPT)-Phe-OH
[13] = tested on: Compound 27, Ac-Cys-Ma-PEG5-Phe-Cit-Lys(Mcc-DM1)-Tyr-OH
[14] = tested on: Compound 28, Ac-Cys-Mal-PEG4-Phe-Lys-Lys(Mal-DM1)-Phe-Phe-Lys-OH
[15] = tested on: Compound 32, Ac-Cys-Mal-[PEG5-Lys(AF-Cit-Lys(Y)-Phe-OH)]2-Gly-NH2
[16] = tested on: Compound 11, Arg-PEG4-Phe-Arg-Ser(CO-CPT)-Phe-OH
[17] = tested on: Compound 15, Arg-PEG4-Phe-Arg-Glu(Sar-OCPT)-Arg-OH
[18] = tested on: Compound 31, AF-Cit-Lys(Mal-DM1)-Phe-Lys(PEG4-Mal-Cys-Ac)-Phe-OH
[19] = tested on: Compound 6, DM1-Mal-Phe-Cit-Lys(PEG4-Mal-Cys-Ac)-Phe-OH
[20] = tested on: Compound 12, Ac-Cys-Mal-PEG4-Phe-Lys-Lys(Mal-DM1)-Phe-OH
[21] = tested on: Compound 18, Arg-PEG4-[Phe-Arg-Glu(Sar-OCPT)-Arg]2-OH
[22] = tested on: Compound 1, AF-Arg-Lys(PEG4-Mal-Cys-Ac)-Phe-OH
[23] = tested on: Compound 8, Arg-PEG4-Phe-Arg-Glu(Sar-OCPT)-Phe-OH
[24] = tested on: Compound 13, Ac-Cys-Mal-PEG4-Phe-Lys-Lys(AF)-Phe-OH

Q: Which T1/2 Compound (min), Cat B-induced cleavage [1] does the source give for Recombinant human Cathepsin B here?
A: 1.1 min

Q: And the T1/2 Compound (min), Cat B-induced cleavage [2]?
A: 0.6 min

Q: And the T1/2 Compound (min), Cat B-induced cleavage [3]?
A: 1.2 min

Q: What about the T1/2 Compound (min), Cat B-induced cleavage [4] of the same substance?
A: 1.4 min

Q: And the T1/2 Compound (min), Cat B-induced cleavage [5]?
A: 0.06 min

Q: And the T1/2 Compound (min), Cat B-induced cleavage [6]?
A: 1.1 min

Q: And the T1/2 Compound (min), Cat B-induced cleavage [7]?
A: 2.4 min

Q: And the “Cat B-induced cleavage (in vitro enzymatic cleavage assay)” value [8]?
A: compound 16 as a first intermediate, which is in turn rapidly cleaved via exo-Cat B mechanism to release compound 15 as a second intermediate

Q: What about the T1/2 Compound (min), Cat B-induced cleavage [9] of the same substance?
A: 0.0004 min

Q: And the “Cat B-induced cleavage (in vitro enzymatic cleavage assay)” value [10]?
A: Cat B-induced cleavage of compound 17 rapidly released C-terminal dipeptide-drug unit Glu(Sar-OCPT)-Phe-OH and compound 8 as an intermediate

Q: What about the T1/2 Compound (min), Cat B-induced cleavage [11] of the same substance?
A: 4.5 min

Q: What about the T1/2 Compound (min), Cat B-induced cleavage [12] of the same substance?
A: 0.9 min

Q: And the T1/2 Compound (min), Cat B-induced cleavage [13]?
A: 0.06 min

Q: And the T1/2 Compound (min), Cat B-induced cleavage [14]?
A: 0.3 min

Q: What about the T1/2 Compound (min), Cat B-induced cleavage [15] of the same substance?
A: 0.98 min

Q: What about the T1/2 Compound (min), Cat B-induced cleavage [16] of the same substance?
A: 2.2 min

Q: What about the “Cat B-induced cleavage (in vitro enzymatic cleavage assay)” value [17] of the same substance?
A: Cat B-induced cleavage of compound 15 releases a second C-terminal dipeptide-drug unit H-Glu(Sar-OCPT)-Arg-OH

Q: What about the T1/2 Compound (min), Cat B-induced cleavage [18] of the same substance?
A: 1.08 min

Q: And the T1/2 Compound (min), Cat B-induced cleavage [19]?
A: 0.3 min

Q: And the T1/2 Compound (min), Cat B-induced cleavage [20]?
A: 1.5 min

Q: And the “Cat B-induced cleavage (in vitro enzymatic cleavage assay)” value [21]?
A: Cat B-induced cleavage of compound 18 rapidly released the C-terminal dipeptide-drug unit H-Glu(Sar-OCPT)-Arg-OH and compound 16 as a first intermediate

Q: What about the T1/2 Compound (min), Cat B-induced cleavage [22] of the same substance?
A: 1.5 min

Q: What about the “Cat B-induced cleavage (in vitro enzymatic cleavage assay)” value [23] of the same substance?
A: compound 8 was rapidly cleaved to release the C-terminal dipeptide-drug unit H-Glu(Sar-OCPT)-Phe-OH

Q: And the T1/2 Compound (min), Cat B-induced cleavage [23]?
A: 2.2 min

Q: And the T1/2 Compound (min), Cat B-induced cleavage [24]?
A: 1.6 min

Source: US20220062371
